Assay results published in publication PMC6420597, “The MurG glycosyltransferase provides an oligomeric scaffold for the cytoplasmic steps of peptidoglycan biosynthesis in the human pathogen Bordetella pertussis” (Scientific Reports, 2019).

B1: MurG glycosyltransferase from Bordetella pertussis, N-terminal Strep-tagged (enzyme, UniProt Q7VUQ3 1-357, looked up)
chain: MSAPTILIMAGGTGGHIMPGLAVAEVLRERGWRVLWLGNPDKMEGRLVPPRGIELVPLRFQGVRGRGAAALLKLPFLLARACAQAWRRLADIRPDVVLGMGGYVAFPGGVMAALRRTPLVVHEQNAVAGTANRWLARLARRVLSGFPGVLPRGEALGNPVRADLCALPEPAERYAGRSGALRVLVVGGSLGAHALNTTVPQALALLPEQARPQVVHQAGEQHLPALQQAYAQAGVQADCRAFIDDMADAMAQADLLICRAGAMTVSEVAAAGVAALFVPFPHAIDDHQTANARFLSDAQAAWLQPQASLTPQWLAQWLGQRTRQELQAVAGRARTHALPRAAAHIADVCEQAARRAS
notes: MurG, Bordetella pertussis strain ATCC 9797/DSM No 5571; printed as a 357-residue protein; the murG gene was cloned into a modified pET30b; The Strep-tag is TEV-cleavable, but no cleavage is described; It is not clear whether the 357 residues include the tag; The oligomeric state depends on detergent: dimer in DDM/DM, tetramers and higher without; The discussion gives a mass of 50 kDa; also …

Key:
[1] = molecular target: MurE-MurF bifunctional fusion protein from Bordetella pertussis, His-tagged (Bordetella pertussis (strain ATCC 9797/DSM No 5571)); assay: SEC-MALS; larger SEC form (dimer pool) of MurE-MurF; 25 mM HEPES pH 7.5, 300 mM NaCl, 10 mM MgCl2, 5% glycerol; room temperature
[2] = molecular target: MurE-MurF bifunctional fusion protein from Bordetella pertussis, His-tagged (Bordetella pertussis (strain ATCC 9797/DSM No 5571))
[3] = molecular target: MurE-MurF bifunctional fusion protein from Bordetella pertussis, His-tagged (Bordetella pertussis (strain ATCC 9797/DSM No 5571)); assay: AUC; sedimentation velocity, dimer pool of MurE-MurF at 40, 10 and 2.5 μM, 42,000 rpm, 20 °C
[4] = molecular target: the molecule itself; assay: AUC; sedimentation velocity, MurG 2 mg/ml in buffer with DM (1.2 x CMC), 42,000 rpm, 20 °C
[5] = molecular target: FITC-labelled MurE-MurF fusion protein from Bordetella pertussis (Bordetella pertussis (strain ATCC 9797/DSM No 5571)); assay: MST; FITC-labelled MurE-MurF at a fixed concentration, MurG purified in detergent titrated; 25 mM HEPES pH 7.5, 150 mM NaCl, 10 mM MgCl2, 5% glycerol, 0.17% w/v DM; 22 °C; triplicate
[6] = molecular target: FITC-labelled MurE-MurF fusion protein from Bordetella pertussis (Bordetella pertussis (strain ATCC 9797/DSM No 5571)); assay: MST; FITC-labelled MurE-MurF at a fixed concentration, oligomeric MurG (purified without detergent) titrated from 1 nM to 37 μM; 25 mM HEPES pH 7.5, 150 mM NaCl, 10 mM MgCl2, 5% glycerol, no detergent; apparent KD, no clear plateau

Molecule | stoichiometry N [1] | specific activity of the MurF-catalysed reaction (D-Ala-D-Ala-adding) of the dimeric form of MurE-MurF; the monomeric form gave 14.1 µmol/min/mg [2] | stoichiometry N [3] | stoichiometry N [4] | Kd [5] | Kd [6]
MurE-MurF bifunctional fusion protein from Bordetella pertussis, His-tagged (enzyme) | 2 | 7.5 µmol/min/mg | 2 | – | – | –
B1 | – | – | – | 2 | 570 nM | 970 nM
